Reference: IntAct's records for PubMed 34637754

B1: Autism susceptibility gene 2 protein (Homo sapiens), Q8WXX7 (parent)
chain: MDGPTRGHGLRKKRRSRSQRDRERRSRGGLGAGAAGGGGAGRTRALSLASSSGSDKEDNGKPPSSAPSRPRPPRRKRRESTSAEEDIIDGFAMTSFVTFEALEKDVALKPQERVEKRQTPLTKKKREALTNGLSFHSKKSRLSHPHHYSSDRENDRNLCQHLGKRKKMPKALRQLKPGQNSCRDSDSESASGESKGFHRSSSRERLSDSSAPSSLGTGYFCDSDSDQEEKASDASSEKLFNTVIVNKDPELGVGTLPEHDSQDAGPIVPKISGLERSQEKSQDCCKEPIFEPVVLKDPCPQVAQPIPQPQTEPQLRAPSPDPDLVQRTEAPPQPPPLSTQPPQGPPEAQLQPAPQPQVQRPPRPQSPTQLLHQNLPPVQAHPSAQSLSQPLSAYNSSSLSLNSLSSSRSSTPAKTQPAPPHISHHPSASPFPLSLPNHSPLHSFTPTLQPPAHSHHPNMFAPPTALPPPPPLTSGSLQVAGHPAGSTYSEQDILRQELNTRFLASQSADRGASLGPPPYLRTEFHQHQHQHQHTHQHTHQHTFTPFPHAIPPTAIMPTPAPPMFDKYPTKVDPFYRHSLFHSYPPAVSGIPPMIPPTGPFGSLQGAFQPKTSNPIDVAARPGTVPHTLLQKDPRLTDPFRPMLRKPGKWCAMHVHIAWQIYHHQQKVKKQMQSDPHKLDFGLKPEFLSRPPGPSLFGAIHHPHDLARPSTLFSAAGAAHPTGTPFGPPPHHSNFLNPAAHLEPFNRPSTFTGLAAVGGNAFGGLGNPSVTPNSMFGHKDGPSVQNFSNPHEPWNRLHRTPPSFPTPPPWLKPGELERSASAAAHDRDRDVDKRDSSVSKDDKERESVEKRHSSHPSPAPVLPVNALGHTRSSTEQIRAHLNTEAREKDKPKERERDHSESRKDLAADEHKAKEGHLPEKDGHGHEGRAAGEEAKQLARVPSPYVRTPVVESARPNSTSSREAEPRKGEPAYENPKKSSEVKVKEERKEDHDLPPEAPQTHRASEPPPPNSSSSVHPGPLASMPMTVGVTGIHPMNSISSLDRTRMMTPFMGISPLPGGERFPYPSFHWDPIRDPLRDPYRELDIHRRDPLGRDFLLRNDPLHRLSTPRLYEADRSFRDREPHDYSHHHHHHHHPLSVDPRREHERGGHLDERERLHMLREDYEHTRLHSVHPASLDGHLPHPSLITPGLPSMHYPRISPTAGNQNGLLNKTPPTAALSAPPPLISTLGGRPVSPRRTTPLSAEIRERPPSHTLKDIEAR
B2: Autism susceptibility gene 2 protein homolog (Mus musculus), A0A087WPF7 (parent)
chain: MDGPTRGHGLRKKRRSRSQRDRERRSRAGLGTGAAGGIGAGRTRAPSLASSSGSDKEDNGKPPSSAPSRPRPPRRKRRESTSAEEDIIDGFAMTSFVTFEALEKDVAVKPQERAEKRQTPLTKKKREALTNGLSFHSKKSRLSHSHHYSSDRENDRNLCQHLGKRKKMPKGLRQLKPGQNSCRDSDSESASGESKGFQRSSSRERLSDSSAPSSLGTGYFCDSDSDQEEKASDASSEKLFNTVLVNKDPELGVGALPEHNQDAGPIVPKISGLERSQEKSQDCCKEPVFEPVVLKDPHPQLPQLPSQAQAEPQLQIPSPGPDLVPRTEAPPQFPPPSTQPAQGPPEAQLQPAPLPQVQQRPPRPQSPSHLLQQTLPPVQSHPSSQSLSQPLSAYNSSSLSLNSLSSRSSTPAKTQPAPPHISHHPSASPFPLSLPNHSPLHSFTPTLQPPAHSHHPNMFAPPTALPPPPPLTSGSLQVPGHPAGSTYSEQDILRQELNTRFLASQSADRGASLGPPPYLRTEFHQHQHQHQHTHQHTHQHTFTPFPHAIPPTAIMPTPAPPMFDKYPTKVDPFYRHSLFHSYPPAVSGIPPMIPPTGPFGSLQGAFQPKTSNPIDVAARPGTVPHTLLQKDPRLTDPFRPMLRKPGKWCAMHVHIAWQIYHHQQKVKKQMQSDPHKLDFGLKPEFLSRPPGPSLFGAIHHPHDLARPSTLFSAAGAAHPTGTPFGPPPHHSNFLNPAAHLEPFNRPSTFTGLAAVGGNAFGGLGNPSVTPNSVFGHKDSPSVQNFSNPHEPWNRLHRTPPSFPTPPPWLKPGELERSASAAAHDRDRDVDKRDSSVSKDDKERESVEKRHPSHPSPAPPVPVSALGHNRSSTDPTTRGHLNTEAREKDKPKEKERDHSGSRKDLTTEEHKAKESHLPERDGHSHEGRAAGEEPKQLSRVPSPYVRTPGVDSTRPNSTSSREAEPRKGEPAYENPKKNAEVKVKEERKEDHDLPTEAPQAHRTSEAPPPSSSASASVHPGPLASMPMTVGVTGIHAMNSIGSLDRTRMVTPFMGLSPIPGGERFPYPSFHWDPMRDPLRDPYRDLDMHRRDPLGRDFLLRNDPLHRLSTPRLYEADRSFRDREPHDYSHHHHHHHHPLAVDPRREHERGGHLDERERLHVLREDYEHPRLHPVHPASLDGHLPHPSLLTPGLPSMHYPRISPTAGHQNGLLNKTPPTAALSAPPPLISTLGGRPGSPRRTTPLSAEIRERPPSHTLKDIEAR

Columns and labels:
[1] = variants of: B1; details: with ep300_human EP300, Q09472
Chain of ep300_human EP300, Q09472 (Q09472 whole entry): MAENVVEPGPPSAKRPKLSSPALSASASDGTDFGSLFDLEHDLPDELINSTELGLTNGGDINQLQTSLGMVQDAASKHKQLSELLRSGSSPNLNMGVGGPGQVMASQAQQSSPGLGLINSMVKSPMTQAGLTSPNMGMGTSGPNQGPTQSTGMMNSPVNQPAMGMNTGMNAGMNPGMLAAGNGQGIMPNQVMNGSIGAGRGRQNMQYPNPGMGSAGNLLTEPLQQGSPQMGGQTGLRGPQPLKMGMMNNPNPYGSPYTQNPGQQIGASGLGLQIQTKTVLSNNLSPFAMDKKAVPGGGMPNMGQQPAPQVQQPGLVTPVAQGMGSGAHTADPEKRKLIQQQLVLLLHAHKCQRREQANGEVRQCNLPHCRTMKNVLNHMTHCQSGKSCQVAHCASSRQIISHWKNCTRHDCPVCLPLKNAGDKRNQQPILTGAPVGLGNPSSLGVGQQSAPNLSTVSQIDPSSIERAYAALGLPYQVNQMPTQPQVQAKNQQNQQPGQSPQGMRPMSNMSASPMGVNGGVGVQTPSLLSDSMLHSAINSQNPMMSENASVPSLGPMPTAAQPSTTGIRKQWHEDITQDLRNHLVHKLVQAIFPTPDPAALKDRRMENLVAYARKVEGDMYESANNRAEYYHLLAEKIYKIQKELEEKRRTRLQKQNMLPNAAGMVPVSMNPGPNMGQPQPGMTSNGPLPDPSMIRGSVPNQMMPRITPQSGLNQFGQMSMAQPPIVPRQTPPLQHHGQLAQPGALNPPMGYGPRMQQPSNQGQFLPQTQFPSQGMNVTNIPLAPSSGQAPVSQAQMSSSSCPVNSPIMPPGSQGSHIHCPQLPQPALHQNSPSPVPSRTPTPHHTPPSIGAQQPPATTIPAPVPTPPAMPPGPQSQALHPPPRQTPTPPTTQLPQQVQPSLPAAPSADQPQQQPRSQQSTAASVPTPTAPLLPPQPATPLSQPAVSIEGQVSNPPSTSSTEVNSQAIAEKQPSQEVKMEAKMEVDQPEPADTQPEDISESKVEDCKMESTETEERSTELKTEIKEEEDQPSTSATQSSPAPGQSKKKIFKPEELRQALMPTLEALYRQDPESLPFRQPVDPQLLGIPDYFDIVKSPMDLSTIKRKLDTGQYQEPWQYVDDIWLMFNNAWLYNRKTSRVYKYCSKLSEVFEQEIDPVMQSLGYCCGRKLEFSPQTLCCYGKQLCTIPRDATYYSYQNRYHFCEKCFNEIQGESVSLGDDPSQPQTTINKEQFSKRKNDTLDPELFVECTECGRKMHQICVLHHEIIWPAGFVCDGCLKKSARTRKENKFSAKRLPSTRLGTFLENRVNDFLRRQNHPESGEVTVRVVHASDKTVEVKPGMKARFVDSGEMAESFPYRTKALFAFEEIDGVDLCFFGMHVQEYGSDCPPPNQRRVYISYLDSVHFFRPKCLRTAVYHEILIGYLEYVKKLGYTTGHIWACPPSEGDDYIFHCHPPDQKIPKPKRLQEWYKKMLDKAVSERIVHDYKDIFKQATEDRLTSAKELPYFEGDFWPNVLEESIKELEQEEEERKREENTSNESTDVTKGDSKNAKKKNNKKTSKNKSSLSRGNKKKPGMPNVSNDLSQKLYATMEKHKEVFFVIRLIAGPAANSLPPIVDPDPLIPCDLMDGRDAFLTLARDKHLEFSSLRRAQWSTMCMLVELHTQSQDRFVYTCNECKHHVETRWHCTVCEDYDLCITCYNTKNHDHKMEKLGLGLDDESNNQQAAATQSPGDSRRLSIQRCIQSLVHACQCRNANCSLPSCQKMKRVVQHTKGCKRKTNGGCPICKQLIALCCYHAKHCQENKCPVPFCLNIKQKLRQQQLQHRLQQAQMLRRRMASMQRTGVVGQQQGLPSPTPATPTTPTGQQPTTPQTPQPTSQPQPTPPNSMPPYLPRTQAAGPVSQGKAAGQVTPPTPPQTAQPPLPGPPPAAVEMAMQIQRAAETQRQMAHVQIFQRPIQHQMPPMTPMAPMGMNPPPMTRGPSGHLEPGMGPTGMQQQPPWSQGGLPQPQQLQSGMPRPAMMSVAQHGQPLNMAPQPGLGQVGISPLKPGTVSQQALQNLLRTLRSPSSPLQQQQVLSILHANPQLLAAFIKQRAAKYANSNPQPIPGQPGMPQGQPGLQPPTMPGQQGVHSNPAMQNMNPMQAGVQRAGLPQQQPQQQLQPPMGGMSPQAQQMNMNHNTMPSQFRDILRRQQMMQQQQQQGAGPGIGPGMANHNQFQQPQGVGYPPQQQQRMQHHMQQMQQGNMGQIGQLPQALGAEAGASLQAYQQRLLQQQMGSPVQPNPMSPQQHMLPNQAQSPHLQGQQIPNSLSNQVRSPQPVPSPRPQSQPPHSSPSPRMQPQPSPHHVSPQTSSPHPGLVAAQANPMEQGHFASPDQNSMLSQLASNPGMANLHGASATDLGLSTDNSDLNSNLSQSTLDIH

ring2_human RNF2, Q99496 = variants of: B1; details: with ring2_human RNF2, Q99496
Chain of ring2_human RNF2, Q99496 (Q99496 whole entry): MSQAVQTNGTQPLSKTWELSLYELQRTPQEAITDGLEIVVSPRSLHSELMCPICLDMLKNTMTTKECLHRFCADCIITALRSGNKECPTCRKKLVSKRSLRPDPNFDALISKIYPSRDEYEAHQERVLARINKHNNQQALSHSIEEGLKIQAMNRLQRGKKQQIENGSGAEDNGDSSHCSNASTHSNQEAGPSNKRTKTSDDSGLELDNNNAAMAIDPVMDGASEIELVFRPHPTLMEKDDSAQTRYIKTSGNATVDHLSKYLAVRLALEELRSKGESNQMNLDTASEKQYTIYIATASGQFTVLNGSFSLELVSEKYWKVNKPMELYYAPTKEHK

[2] = variants of: B1; details: with ep300_human EP300, Q09472; remark: listed apart in the source
[3] = variants of: B2; details: with ep300_mouse Ep300, B2RWS6
ring2_mouse Rnf2, Q9CQJ4 = variants of: B2; details: with ring2_mouse Rnf2, Q9CQJ4
Chain of ring2_mouse Rnf2, Q9CQJ4 (Q9CQJ4 whole entry): as the sequence (Q99496 whole entry) above, with M214V counted along it

[4] = variants of: B2; details: with nf2l1_mouse Nfe2l1, Q61985
Chain of nf2l1_mouse Nfe2l1, Q61985 (Q61985 whole entry): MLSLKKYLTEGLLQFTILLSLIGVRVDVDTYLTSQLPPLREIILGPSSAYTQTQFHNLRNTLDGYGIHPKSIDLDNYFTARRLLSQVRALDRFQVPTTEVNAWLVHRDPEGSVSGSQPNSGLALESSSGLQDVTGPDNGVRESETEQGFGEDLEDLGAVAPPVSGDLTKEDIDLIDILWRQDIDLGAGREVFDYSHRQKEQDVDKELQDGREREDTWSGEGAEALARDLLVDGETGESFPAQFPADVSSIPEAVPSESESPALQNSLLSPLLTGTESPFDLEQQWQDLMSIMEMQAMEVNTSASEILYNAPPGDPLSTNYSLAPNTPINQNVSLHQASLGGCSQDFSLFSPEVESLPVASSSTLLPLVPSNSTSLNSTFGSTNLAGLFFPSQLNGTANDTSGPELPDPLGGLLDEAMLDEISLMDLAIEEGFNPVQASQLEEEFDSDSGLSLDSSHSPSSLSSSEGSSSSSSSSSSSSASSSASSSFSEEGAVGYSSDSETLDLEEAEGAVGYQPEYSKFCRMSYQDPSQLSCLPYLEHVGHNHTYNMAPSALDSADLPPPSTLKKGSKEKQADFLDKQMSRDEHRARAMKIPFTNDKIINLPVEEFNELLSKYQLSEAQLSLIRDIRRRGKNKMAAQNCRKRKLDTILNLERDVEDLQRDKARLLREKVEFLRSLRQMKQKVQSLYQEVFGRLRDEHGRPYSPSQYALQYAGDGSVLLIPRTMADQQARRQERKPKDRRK

| Variant | effect of a mutation on the interaction [1] | effect of a mutation on the interaction (ring2_human RNF2, Q99496) | effect of a mutation on the interaction [2] | effect of a mutation on the interaction [3] | effect of a mutation on the interaction (ring2_mouse Rnf2, Q9CQJ4) | effect of a mutation on the interaction [4] |
| --- | --- | --- | --- | --- | --- | --- |
| P517L | decreasing interaction | increasing interaction | with no effect |  |  |  |
| T534P | disrupting interaction | with no effect |  |  |  |  |
| T533P |  |  |  | disrupting interaction | with no effect | with no effect |
